Here are results for four molecules from patent US20250289885A1 (TRUSTEES OF BOSTON UNIVERSITY, published 2025).

For experiment [1], the target named is T1, mouse Notch1 NRR with V1677D, in the ProNotch receptor (mouse, UniProt Q01705 1427-1752).
T1 construct: Domain of a synthetic receptor on cells; also called NRR(V1677D); Mouse NRR1-V1677D
Briefly: anti-HA immunoblot (aHA-HRP) of cell lysate and conditioned media of HEK293-FT cells expressing the receptor, after TEVp cleavage of the scFv-NRR linker. The protocol:
(§1) HEK293-FT cells were transfected with pcDNA3-based plasmids encoding the indicated receptor with TEVs substrate linker and N-terminal HA tag. (FIG. 11A) cell lysates and conditioned anti-HA immunoblots after 3 hours of TEVp incubation, overwise indicated. FL; full-length receptor, NTF; N-terminal fragment, Ab; ‘A-2’ variant of the anti-NRR1 scFv. (FIG. 11B) Inventors further evaluated the efficiency of TEVs cleavage by comparing an anti-HA blot (which stains all copies of the receptor, including those in the secretory pathway) to a streptavidin blot probing for surface-bound receptor copies by labelling receptors with a cell-impermeant halo-ligand-biotin conjugate. […] Immunoblot of cell lysates and conditioned media of HEK293-FT expressing the ‘V1677D’ design by transient transfection. Cells were stained with cell-impermeant halo-biotin prior to TEVp addition. Cell lysates and conditioned media were collected for immunoblot analysis after 3 hours. Colored triangle markers denote FL (top arrow of top blot), NTF (middle arrow of top blot; top arrow of bottom blot) and cleaved NTF (bottom arrows of both blots) species.
(§2) Inventors then evaluated whether these receptors have different TEVs cleavage efficiencies and anti-NRR1 scFv dissociation kinetics. They immunoblotted for the anti-NRR1 scFv mask in cell lysates and conditioned media in cells expressing the non-mutated WT, V1677D, and A1702P NRR receptors in the absence or addition of exogenous TEVp. Inventors than chose to analyze the V1677D and A1702P mutations since they were the designs with the highest and lowest protease-induced reporter activation, respectively.
A general note: Immunoblotting shows a protein as a band on a membrane.

Experiment [2] addresses T2, mouse Notch1 NRR with the T-ALL mutation A1702P, in the receptor design (mouse, UniProt Q01705 1427-1752).
T2 construct: also called A1691P in mouse Notch1
Described as above. As to the method: as §1, §2

Experiment [3] addresses T3, mouse Notch1 NRR, non-mutated (WT), in the control receptor HA-Halo-antiNRR-TEVs-NRR-GAL4VP64 (mouse, UniProt Q01705 1427-1752).
T3 construct: Domain of a synthetic receptor on cells; also called non-mutated NRR control; Mouse NRR1-WT
The description is as above. The protocol:
as §1, §2

The target in experiment [4] is T4, hNotch1 receptor, stably integrated, on clonal CHO-K1 cells (human, UniProt P46531 19-2555).
T4 construct: whole, on cells; also called human Notch1
In words: fluorescence microscopy of cell-surface bound probody on clonal CHO-K1 cells expressing hNotch1, 40-minute incubation, wash, fixation. An excerpt:
FIGS. 33A-33C present schematics and data showing activation of a probody/masked antibody with specificity against human Notch1 (hNotch) NRR. (FIG. 33A) Schematic depicting the TEV protease (TEVp)-mediated activation and binding of the anti-hNotch1 probody. The probody sequence used contains the V1677D mutant NRR as a “mask” and is linked to an anti-hNotch1 scFv via a linker containing a TEVp substrate sequence. Upon cleavage by TEVp, the NRR mask dissociates from the scFv and is thus able to bind its corresponding antigen. A fluorophore is linked to the probody sequence to permit visualization. (FIGS. 33B and 33C) Tests of scFv binding to hNotch1. Clonal CHO-K1 cells expressing a stably integrated hNotch1 receptor were incubated with the body alone (FIG. 33B) or with the pro body treated with TEVp (FIG. 33C). Following a 40-minute incubation, probody-containing media was removed, and cells were washed with fresh media prior to fixation and DNA staining with Hoechst-JF526 (inset). Cells were imaged to detect cell-surface bound (activated) probody and Hoechst-JF526. Binding to hNotch1 was observed only with the TEVp-cleaved probody sequence. The antibody sequence used in the body can inhibit signaling by wild-type and various disease-associated hNotch1 mutations (Wu et al. Nature 464: 1052-1057 (2010)).

For experiment [5], the target named is T5, Notch1-Gal4 chimeric receptor (hN1 ECD-Gal4 ICD) on CHO-K1 cells (human, UniProt P46531 19-1735).
T5 construct: extracellular domain; H2B-mTurq2 marker; also called Notch1-Ga4; NOTCH1 ECD-GAL4 ICD; not shown: transmembrane segment and Gal4 intracellular domain
T5 sequence (P46531 19-1735, stated change not applied): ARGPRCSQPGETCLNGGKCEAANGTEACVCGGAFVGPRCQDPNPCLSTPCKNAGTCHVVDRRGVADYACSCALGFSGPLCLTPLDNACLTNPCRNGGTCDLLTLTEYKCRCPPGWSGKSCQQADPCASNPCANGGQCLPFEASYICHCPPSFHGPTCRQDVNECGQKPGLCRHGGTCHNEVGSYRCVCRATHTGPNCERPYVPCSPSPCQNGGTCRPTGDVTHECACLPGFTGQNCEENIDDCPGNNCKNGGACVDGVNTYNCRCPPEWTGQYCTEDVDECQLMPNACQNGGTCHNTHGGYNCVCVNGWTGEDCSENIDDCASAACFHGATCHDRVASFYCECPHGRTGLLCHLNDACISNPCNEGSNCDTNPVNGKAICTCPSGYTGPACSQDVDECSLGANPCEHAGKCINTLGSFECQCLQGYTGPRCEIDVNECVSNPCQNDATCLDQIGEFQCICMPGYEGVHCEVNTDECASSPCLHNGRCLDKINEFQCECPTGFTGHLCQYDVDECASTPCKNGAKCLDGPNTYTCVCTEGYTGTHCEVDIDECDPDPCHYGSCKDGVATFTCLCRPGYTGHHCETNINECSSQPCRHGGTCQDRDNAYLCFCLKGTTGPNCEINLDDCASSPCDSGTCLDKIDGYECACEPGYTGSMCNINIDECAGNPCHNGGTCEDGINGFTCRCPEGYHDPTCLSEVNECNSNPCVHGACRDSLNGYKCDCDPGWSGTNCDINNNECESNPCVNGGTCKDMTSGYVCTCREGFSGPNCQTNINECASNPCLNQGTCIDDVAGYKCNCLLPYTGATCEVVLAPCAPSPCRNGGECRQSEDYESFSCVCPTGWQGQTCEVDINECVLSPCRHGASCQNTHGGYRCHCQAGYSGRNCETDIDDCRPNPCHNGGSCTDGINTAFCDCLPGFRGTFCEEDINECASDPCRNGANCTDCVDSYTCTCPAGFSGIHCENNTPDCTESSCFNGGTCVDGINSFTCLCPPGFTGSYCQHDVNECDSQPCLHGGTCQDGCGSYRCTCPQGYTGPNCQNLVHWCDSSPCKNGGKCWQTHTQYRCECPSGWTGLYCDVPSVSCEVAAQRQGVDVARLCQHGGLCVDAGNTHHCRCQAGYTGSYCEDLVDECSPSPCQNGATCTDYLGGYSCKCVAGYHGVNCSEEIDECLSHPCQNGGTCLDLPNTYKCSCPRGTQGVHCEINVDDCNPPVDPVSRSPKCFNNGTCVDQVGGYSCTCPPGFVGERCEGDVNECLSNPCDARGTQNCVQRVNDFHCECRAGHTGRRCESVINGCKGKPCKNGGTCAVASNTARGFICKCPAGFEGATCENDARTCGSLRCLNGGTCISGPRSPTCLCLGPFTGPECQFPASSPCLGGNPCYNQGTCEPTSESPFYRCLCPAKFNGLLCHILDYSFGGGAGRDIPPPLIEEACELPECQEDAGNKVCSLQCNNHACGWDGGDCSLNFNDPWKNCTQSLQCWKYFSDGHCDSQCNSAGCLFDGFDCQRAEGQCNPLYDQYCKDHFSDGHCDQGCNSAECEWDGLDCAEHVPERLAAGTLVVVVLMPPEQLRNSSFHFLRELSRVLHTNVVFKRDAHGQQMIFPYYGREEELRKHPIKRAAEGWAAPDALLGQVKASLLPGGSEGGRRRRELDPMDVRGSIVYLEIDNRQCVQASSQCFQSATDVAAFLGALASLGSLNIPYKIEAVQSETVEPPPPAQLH
In words: fluorescence microscopy of JFX650-labelled probody on CHO-K1 cells expressing Notch1-Gal4. An excerpt:
FIGS. 30A and 30B present data showing anti-NRR1-based probodies can bind Notch1 receptors following deletion of the S1 loop (ΔS1) containing the NRR's furin cleavage site. The probodies used represent the anti-NRR1 scFv fused to with a soluble mutant NRR (V1667D) from Notch1, linked together via a TEV protease substrate sequence. The probodies were also fused with a HaloTag domain, which remains attached to the anti-NRR scFv following TEV cleavage. CHO-K1 cells expressing a Notch1-Gal4 chimeric receptor were treated with intact (uncleaved) and TEV protease-cleaved versions of the indicated probodies. The HaloTag domains were conjugated with a JFX650 dye to permit visualization of their binding to cell surface Notch1-Ga4 receptors. (FIG. 30A) Fluorescently labeled probody containing the S1 cleavage loop (Probody^V1667D-JF650) binds Notch1-Gal4 only in its TEV protease-cleaved state. (FIG. 30B) Fluorescently labeled probody containing the S1 cleavage loop deletion (Probody^V1667D(ΔS1)-JF650) similarly binds Notch1-Gal4 in a manner that is dependent on TEV protease cleavage. Insets represent emissions from a constitutively expressed H2B-mTurq2 expressed by the analyzed cells.

In experiment [6] the target is T6, human Notch1-derived receptor overexpressed on CHO-K1 cells (human, UniProt P46531 19-1762, limits assumed).
T6 construct: Cells also express H2B-mTurq; also called Notch1 receptors
T6 sequence (P46531 19-1762 limits assumed): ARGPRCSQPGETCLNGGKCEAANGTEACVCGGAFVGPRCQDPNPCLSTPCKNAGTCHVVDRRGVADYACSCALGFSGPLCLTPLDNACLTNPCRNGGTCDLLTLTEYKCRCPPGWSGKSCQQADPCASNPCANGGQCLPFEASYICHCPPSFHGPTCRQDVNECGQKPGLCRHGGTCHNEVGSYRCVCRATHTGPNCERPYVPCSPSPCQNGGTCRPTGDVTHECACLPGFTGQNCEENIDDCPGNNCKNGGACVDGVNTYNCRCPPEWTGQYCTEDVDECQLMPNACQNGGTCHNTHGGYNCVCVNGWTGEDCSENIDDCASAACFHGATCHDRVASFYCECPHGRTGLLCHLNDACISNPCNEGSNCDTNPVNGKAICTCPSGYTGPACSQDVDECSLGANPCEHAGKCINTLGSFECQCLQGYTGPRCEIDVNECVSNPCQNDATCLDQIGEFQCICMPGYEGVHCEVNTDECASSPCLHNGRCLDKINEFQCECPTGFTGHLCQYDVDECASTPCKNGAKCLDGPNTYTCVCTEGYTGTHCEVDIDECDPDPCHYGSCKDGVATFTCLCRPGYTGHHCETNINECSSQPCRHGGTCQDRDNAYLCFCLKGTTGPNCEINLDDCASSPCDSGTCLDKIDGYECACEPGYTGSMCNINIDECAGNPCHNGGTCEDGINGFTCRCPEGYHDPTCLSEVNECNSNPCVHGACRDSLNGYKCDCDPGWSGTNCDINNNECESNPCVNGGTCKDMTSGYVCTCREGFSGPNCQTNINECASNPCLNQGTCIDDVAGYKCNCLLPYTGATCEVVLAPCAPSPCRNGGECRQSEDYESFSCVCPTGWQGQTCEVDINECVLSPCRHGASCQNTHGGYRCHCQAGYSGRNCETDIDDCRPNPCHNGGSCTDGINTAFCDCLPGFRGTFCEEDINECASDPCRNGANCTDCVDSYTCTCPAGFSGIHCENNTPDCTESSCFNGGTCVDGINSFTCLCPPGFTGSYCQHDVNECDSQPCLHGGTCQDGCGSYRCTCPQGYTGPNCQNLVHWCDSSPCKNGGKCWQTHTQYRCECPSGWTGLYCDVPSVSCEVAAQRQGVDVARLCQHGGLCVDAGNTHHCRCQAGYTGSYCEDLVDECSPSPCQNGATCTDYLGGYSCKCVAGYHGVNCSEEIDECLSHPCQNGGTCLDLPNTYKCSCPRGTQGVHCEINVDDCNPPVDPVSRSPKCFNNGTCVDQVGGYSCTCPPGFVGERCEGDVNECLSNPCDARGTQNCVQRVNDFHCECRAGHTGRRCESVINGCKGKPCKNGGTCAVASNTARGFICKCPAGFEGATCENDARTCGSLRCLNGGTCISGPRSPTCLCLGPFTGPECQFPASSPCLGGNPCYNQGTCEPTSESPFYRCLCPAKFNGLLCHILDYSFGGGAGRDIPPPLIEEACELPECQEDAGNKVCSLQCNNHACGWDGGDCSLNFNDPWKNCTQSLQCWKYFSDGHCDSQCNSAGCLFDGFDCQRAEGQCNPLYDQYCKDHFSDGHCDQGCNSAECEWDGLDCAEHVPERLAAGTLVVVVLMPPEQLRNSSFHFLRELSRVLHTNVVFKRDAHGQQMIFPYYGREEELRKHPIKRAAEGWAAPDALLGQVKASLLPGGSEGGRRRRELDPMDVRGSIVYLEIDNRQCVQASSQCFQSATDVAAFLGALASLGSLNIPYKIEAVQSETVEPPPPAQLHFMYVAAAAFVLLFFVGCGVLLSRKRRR
In words: fluorescence microscopy of JFX650-labelled probody on CHO-K1 cells overexpressing a human Notch1-derived receptor. The protocol: FIG. 37 present data showing Probody with a mask based on the wild-type Notch1-NRR binds Notch1 Receptors in a Cleavage-Dependent Manner. A probody containing the anti-NRR1 scFv was fused to a TEV protease cleavable linker and the wild-type Notch1 NRR. The probodies also contained a HaloTag for labeling with a JFX650 dye. Binding of the probody to Notch1 receptors was tested using uncleaved and TEV protease-cleaved probody. The evaluated cells were based on CHO-K1 celle overexpressing a human Notch1-derived receptor; cells also expressed H2B-mTurq as a fluorescent marker (inset).

Changes are numbered by the printed parent chain. Numbers in names are those of the source.

T3 sequence (Q01705 1427-1752 limits assumed, change not shown): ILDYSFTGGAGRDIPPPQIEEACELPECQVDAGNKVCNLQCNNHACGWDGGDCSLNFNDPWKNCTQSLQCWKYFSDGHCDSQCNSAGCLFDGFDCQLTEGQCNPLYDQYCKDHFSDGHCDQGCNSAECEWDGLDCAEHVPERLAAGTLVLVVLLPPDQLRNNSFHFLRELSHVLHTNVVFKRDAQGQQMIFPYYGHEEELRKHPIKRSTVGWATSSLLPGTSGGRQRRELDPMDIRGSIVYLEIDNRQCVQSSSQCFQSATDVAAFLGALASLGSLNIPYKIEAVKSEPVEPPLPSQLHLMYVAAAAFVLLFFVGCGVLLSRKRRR
T2 sequence (Q01705 1427-1752 A1691P limits assumed): as the sequence (Q01705 1427-1752 limits assumed, change not shown) above, with A265P counted along it
T1 sequence (Q01705 1427-1752 V1666D limits assumed): as the sequence (Q01705 1427-1752 limits assumed, change not shown) above, with V240D counted along it

B1: 'A-2' variant of the anti-NRR1 scFv (mask domain) (scFv)
scFv: EVQLVESGGGLVQPGGSLRLSCAASGFTFSSYWIHWVRQAPGKGLEWVARINPPNRSNQYADSVKGRFTISADTSKNTAYLQMNSLRAEDTAVYYCARGSGFRWVMDYWGQGTLVTVSSGGSSRSSSSGGGGSGGGGDIQMTQSPSSLSASVGDRVTITCRASQDVSTAVAWYQQKPGKAPKLLIYSASFLYSGVPSRFSGSGSGTDFTLTISSLQPEDFATYYCQQFYTTPSTFGQGTKVEIK
notes: Tested as the N-terminal mask domain of receptors HA-Halo-antiNRR-TEVs-NRR-GAL4VP64, that is on the same polypeptide as the NRR until TEVp cleaves the linker; carries HA tag and HaloTag at its N-terminus; also called A2 scFv
For B1, the binding result in experiment [1], in experiment [2] and in experiment [3] was “binds” throughout.

B2: TEV-cleavable Anti-Notch1 probody, Genentech scFv (HaloTag-anti-NRR1-scFv-TEVcs-msNRR1^V1677D), intact (uncleaved) (other)
chain: YPYDVPDYATGMAEIGTGFPFDPHYVEVLGERMHYVDVGPRDGTPVLFLHGNPTSSYVWRNIIPHVAPTHRCIAPDLIGMGKSDKPDLGYFFDDHVRFMDAFIEALGLEEVVLVIHDWGSALGFHWAKRNPERVKGIAFMEFIRPIPTWDEWPEFARETFQAFRTTDVGRKLIIDQNVFIEGTLPMGVVRPLTEVEMDHYREPFLNPVDREPLWRFPNELPIAGEPANIVALVEEYMDWLHQSPVPKLLFWGTPGVLIPPAEAARLAKSLPNCKAVDIGPGLNLLQEDNPDLIGSEIARWLSTLEISGGGGGSTGDGGGGEVQLVESGGGLVQPGGSLRLSCAASGFTFSSYWIHWVRQAPGKGLEWVARINPPNRSNQYADSVKGRFTISADTSKNTAYLQMNSLRAEDTAVYYCARGSGFRWVMDYWGQGTLVTVSSGGSSRSSSSGGGGSGGGGDIQMTQSPSSLSASVGDRVTITCRASQDVSTAVAWYQQKPGKAPKLLIYSASFLYSGVPSRFSGSGSGTDFTLTISSLQPEDFATYYCQQFYTTPSTFGQGTKVEIKGSNSGGTLEGGGSGENLYFQGGGGGRTGGGSEQKLISEEDLGGGSILDYSFTGGAGRDIPPPQIEEACELPECQVDAGNKVCNLQCNNHACGWDGGDCSLNFNDPWKNCTQSLQCWKYFSDGHCDSQCNSAGCLFDGFDCQLTEGQCNPLYDQYCKDHFSDGHCDQGCNSAECEWDGLDCAEHVPERLAAGTLVLVVLLPPDQLRNNSFHFLRELSHVLHTNVVFKRDAQGQQMIFPYYGHEEELRKHPIKRSTVGWATSSLLPGTSGGRQRRELDPMDIRGSIDYLEIDNRQCVQSSSQCFQSATDVAAFLGALASLGSLNIPYKIEAVKSEPVEGPV
modifications: HaloTag domain conjugated with a fluorescent HaloTag-ligand dye in the binding tests (JFX650; Halo-JF635i in paragraph 360)
notes: Secreted protein; also called Probody^V1667D; Probody^V1667D-JF650
As to B2, the binding result in experiment [4] and in experiment [5] was “no binding” each time.

B3: TEV-cleavable Anti-Notch1 probody, Genentech scFv, Wild-type NRR (HaloTag-anti-NRR1-scFv-TEVcs-msNRR1^WT), intact (uncleaved) (other)
chain: B2 chain with D849V
modifications: HaloTag labelled with JFX650 dye
notes: also called Probody with a mask based on the wild-type Notch1-NRR
Turning to B3, in experiment [6], the binding result is recorded as “no binding”.

B4: TEV-cleavable Anti-Notch1 probody, Genentech scFv, S1 loop deletion (HaloTag-anti-NRR1-scFv-TEVcs-msNRR1^V1677D-deltaS1), intact (uncleaved) (other)
chain: YPYDVPDYATGMAEIGTGFPFDPHYVEVLGERMHYVDVGPRDGTPVLFLHGNPTSSYVWRNIIPHVAPTHRCIAPDLIGMGKSDKPDLGYFFDDHVRFMDAFIEALGLEEVVLVIHDWGSALGFHWAKRNPERVKGIAFMEFIRPIPTWDEWPEFARETFQAFRTTDVGRKLIIDQNVFIEGTLPMGVVRPLTEVEMDHYREPFLNPVDREPLWRFPNELPIAGEPANIVALVEEYMDWLHQSPVPKLLFWGTPGVLIPPAEAARLAKSLPNCKAVDIGPGLNLLQEDNPDLIGSEIARWLSTLEISGGGGGSTGDGGGGEVQLVESGGGLVQPGGSLRLSCAASGFTFSSYWIHWVRQAPGKGLEWVARINPPNRSNQYADSVKGRFTISADTSKNTAYLQMNSLRAEDTAVYYCARGSGFRWVMDYWGQGTLVTVSSGGSSRSSSSGGGGSGGGGDIQMTQSPSSLSASVGDRVTITCRASQDVSTAVAWYQQKPGKAPKLLIYSASFLYSGVPSRFSGSGSGTDFTLTISSLQPEDFATYYCQQFYTTPSTFGQGTKVEIKGSNSGGTLEGGGSGENLYFQGGGGGRTGGGSEQKLISEEDLGGGSILDYSFTGGAGRDIPPPQIEEACELPECQVDAGNKVCNLQCNNHACGWDGGDCSLNFNDPWKNCTQSLQCWKYFSDGHCDSQCNSAGCLFDGFDCQLTEGQCNPLYDQYCKDHFSDGHCDQGCNSAECEWDGLDCAEHVPERLAAGTLVLVVLLPPDQLRNNSFHFLRELSHVLHTNVVFKRDAQGQQMIFPYYGMDIRGSIDYLEIDNRQCVQSSSQCFQSATDVAAFLGALASLGSLNIPYKIEAVKSEPVEGPV
modifications: HaloTag domain conjugated with JFX650 dye
notes: also called Probody^V1667D(ΔS1); Probody^V1667D(ΔS1)-JF650
For the molecule B4, the binding result in experiment [5] is recorded as “no binding”.
